Measured values published in patent publication US20200318071A1.

Biological target: human CD33 (full length, CD33M) (human) (UniProt P20138)
Experiment: cell-based or functional assay

Sequence of UniProt P20138 (P20138 18-364 limits assumed): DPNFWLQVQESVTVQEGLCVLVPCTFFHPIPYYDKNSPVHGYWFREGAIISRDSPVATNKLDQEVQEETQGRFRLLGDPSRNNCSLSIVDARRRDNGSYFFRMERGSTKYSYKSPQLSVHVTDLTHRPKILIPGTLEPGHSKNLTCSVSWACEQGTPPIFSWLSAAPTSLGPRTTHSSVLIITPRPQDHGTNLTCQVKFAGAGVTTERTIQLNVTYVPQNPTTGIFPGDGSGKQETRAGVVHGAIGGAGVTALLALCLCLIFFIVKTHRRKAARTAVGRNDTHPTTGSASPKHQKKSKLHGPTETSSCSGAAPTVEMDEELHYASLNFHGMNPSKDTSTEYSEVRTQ

gemtuzumab ozogamicin (antibody)
IC50 of GO cytotoxicity, HL-60 cells (viable cell number, Celltiter Glo, 72 hours): 0.0355 µg/mL | IC50 of GO cytotoxicity, THP-1 cells (viable cell number, Celltiter Glo, 72 hours): 0.0163 µg/mL
